This note sets out measurements from patent US6288042.

For the series, the target named is HIV-1 integrase wild-type (IN1-288) (Human immunodeficiency virus 1) (UniProt P04585). The experiment in a line: inhibition. The conditions noted are these: I = deoxyinosine; PS at first and last linkage; 3'-processing column as printed; strand transfer column 0.070.

One may read the IC50 as the concentration that inhibits the measured activity by half. A lower IC50 goes with higher potency.

IGGIIGGIIGGIIGGI [T30721] registered a half-inhibitory concentration (IC50) of 88 nM.
